Measurements taken from PMC4417367.

Target: EGFP-GR C683A, L687-690A (rat) (UniProt P06536)
Assay: co-IP

## heat shock protein 90 (natural protein)
  percent decrease of the HSP90/GR ratio against wild type EGFP-GR: 62.7%
